Test results from publication PMC7804450, “Structural insights into TSC complex assembly and GAP activity on Rheb” (Nature Communications, 2021).

B2: tuberous sclerosis complex 2 (TSC2), human, subunit of the purified TSC complex (natural protein)
chain: not shown
notes: TSC2 (tuberin), human; ORF sub-cloned into a modified pCAG vector; residues 127-936, 1015-1082, 1182-1245, 1494-1732 traced; Two copies (TSC2a, TSC2b) stand in the TSC complex (2:2:1); The sample for cryo-EM was cross-linked with glutaraldehyde (Grafix); also called TSC2a; TSC2b
B3: tuberous sclerosis complex 1 (TSC1), human, subunit of the purified TSC complex (natural protein, UniProt Q92574 1-1164, looked up)
chain: MAQQANVGELLAMLDSPMLGVRDDVTAVFKENLNSDRGPMLVNTLVDYYLETSSQPALHILTTLQEPHDKHLLDRINEYVGKAATRLSILSLLGHVIRLQPSWKHKLSQAPLLPSLLKCLKMDTDVVVLTTGVLVLITMLPMIPQSGKQHLLDFFDIFGRLSSWCLKKPGHVAEVYLVHLHASVYALFHRLYGMYPCNFVSFLRSHYSMKENLETFEEVVKPMMEHVRIHPELVTGSKDHELDPRRWKRLETHDVVIECAKISLDPTEASYEDGYSVSHQISARFPHRSADVTTSPYADTQNSYGCATSTPYSTSRLMLLNMPGQLPQTLSSPSTRLITEPPQATLWSPSMVCGMTTPPTSPGNVPPDLSHPYSKVFGTTAGGKGTPLGTPATSPPPAPLCHSDDYVHISLPQATVTPPRKEERMDSARPCLHRQHHLLNDRGSEEPPGSKGSVTLSDLPGFLGDLASEEDSIEKDKEEAAISRELSEITTAEAEPVVPRGGFDSPFYRDSLPGSQRKTHSAASSSQGASVNPEPLHSSLDKLGPDTPKQAFTPIDLPCGSADESPAGDRECQTSLETSIFTPSPCKIPPPTRVGFGSGQPPPYDHLFEVALPKTAHHFVIRKTEELLKKAKGNTEEDGVPSTSPMEVLDRLIQQGADAHSKELNKLPLPSKSVDWTHFGGSPPSDEIRTLRDQLLLLHNQLLYERFKRQQHALRNRRLLRKVIKAAALEEHNAAMKDQLKLQEKDIQMWKVSLQKEQARYNQLQEQRDTMVTKLHSQIRQLQHDREEFYNQSQELQTKLEDCRNMIAELRIELKKANNKVCHTELLLSQVSQKLSNSESVQQQMEFLNRQLLVLGEVNELYLEQLQNKHSDTTKEVEMMKAAYRKELEKNRSHVLQQTQRLDTSQKRILELESHLAKKDHLLLEQKKYLEDVKLQARGQLQAAESRYEAQKRITQVFELEILDLYGRLEKDGLLKKLEEEKAEAAEAAEERLDCCNDGCSDSMVGHNEEASGHNGETKTPRPSSARGSSGSRGGGGSSSSSSELSTPEKPPHQRAGPFSSRWETTMGEASASIPTTVGSLPSSKSFLGMKARELFRNKSESQCDEDGMTSSLSESLKTELGKDLGVEAKIPLNLDGPHPSPPTPDSVGQLHIMDYNETHHEHS
notes: TSC1 (hamartin), human; ORF sub-cloned into a modified pCAG vector; Two copies (TSC1a, TSC1b) stand in the TSC complex (2:2:1); The sample for cryo-EM was cross-linked with glutaraldehyde (Grafix); also called TSC1a; TSC1b

Assays:
Experiment in all cases: cryo-EM structure; human TSC complex (TSC1, TSC2, TBC1D7) co-expressed in Expi293F, purified, cross-linked by Grafix (glutaraldehyde); single particle reconstruction, 4.4 Å overall, core 3.6 Å, wings 3.9 and 4.1 Å
[1] = biological target: B3; conditions: both partners purified
[2] = biological target: the molecule itself
[3] = biological target: B2; conditions: both partners purified

B1: Tre2-Bub2-Cdc16-1 domain family member 7 (TBC1D7), human, subunit of the purified TSC complex (natural protein, UniProt Q9P0N9 1-293, looked up)
chain: MTEDSQRNFRSVYYEKVGFRGVEEKKSLEILLKDDRLDTEKLCTFSQRFPLPSMYRALVWKVLLGILPPHHESHAKVMMYRKEQYLDVLHALKVVRFVSDATPQAEVYLRMYQLESGKLPRSPSFPLEPDDEVFLAIAKAMEEMVEDSVDCYWITRRFVNQLNTKYRDSLPQLPKAFEQYLNLEDGRLLTHLRMCSAAPKLPYDLWFKRCFAGCLPESSLQRVWDKVVSGSCKILVFVAVEILLTFKIKVMALNSAEKITKFLENIPQDSSDAIVSKAIDLWHKHCGTPVHSS
notes: TBC1D7, human; ORF sub-cloned into a modified pCAG vector; residues 21-287 traced; One copy stands in the TSC complex (2:2:1); The sample for cryo-EM was cross-linked with glutaraldehyde (Grafix)
binding result [1]: binds

Binder: B2
stoichiometry N [2]: 2

Binder: B3
binding result [3]: binds
